Experiments:
[1] = biological target: GFP-PIF^S-TCR (moxGFP-noF-PIF^S-TCRβ) (Aequorea victoria | A. thaliana | human) (UniProt Q8L5W7)
[2] = biological target: GFP-PIF^S-TCR (moxGFP-noF-PIF^S-TCRβ) (Aequorea victoria | A. thaliana | human) (UniProt Q8L5W7); remark: listed apart in the source
[3] = biological target: GFP-PIF^S-TCR (moxGFP-noF-PIF^S-TCRβ) (Aequorea victoria | A. thaliana | human) (UniProt Q8L5W7); assay: flow cytometry on cells + other: calcium influx (Indo-1), fit of a mathematical model; same fit as a6; half-life ln2/(koff+ki) under continuous 660 nm light, at the high end of the range of light intensities used
[4] = biological target: GFP-PIF^S-TCR (moxGFP-noF-PIF^S-TCRβ) (Aequorea victoria | A. thaliana | human) (UniProt Q8L5W7); assay: flow cytometry on cells + other: calcium influx (Indo-1), fit of a mathematical model; surface-bound DyLight650-PhyBt on GFP-PIF^S-TCR cells (90 s, 37 C, different PhyBt concentrations and continuous 660 nm intensities) and all calcium data fitted together by maximum likelihood; PhyBt modelled as dimers, off-rates of both steps set equal; parameters are for darkness

Sequence of PhyB tetramers (fluorescently labeled streptavidin-based tetramers of PhyB_(1-651)-Avitag-His6) (P14713 1-651): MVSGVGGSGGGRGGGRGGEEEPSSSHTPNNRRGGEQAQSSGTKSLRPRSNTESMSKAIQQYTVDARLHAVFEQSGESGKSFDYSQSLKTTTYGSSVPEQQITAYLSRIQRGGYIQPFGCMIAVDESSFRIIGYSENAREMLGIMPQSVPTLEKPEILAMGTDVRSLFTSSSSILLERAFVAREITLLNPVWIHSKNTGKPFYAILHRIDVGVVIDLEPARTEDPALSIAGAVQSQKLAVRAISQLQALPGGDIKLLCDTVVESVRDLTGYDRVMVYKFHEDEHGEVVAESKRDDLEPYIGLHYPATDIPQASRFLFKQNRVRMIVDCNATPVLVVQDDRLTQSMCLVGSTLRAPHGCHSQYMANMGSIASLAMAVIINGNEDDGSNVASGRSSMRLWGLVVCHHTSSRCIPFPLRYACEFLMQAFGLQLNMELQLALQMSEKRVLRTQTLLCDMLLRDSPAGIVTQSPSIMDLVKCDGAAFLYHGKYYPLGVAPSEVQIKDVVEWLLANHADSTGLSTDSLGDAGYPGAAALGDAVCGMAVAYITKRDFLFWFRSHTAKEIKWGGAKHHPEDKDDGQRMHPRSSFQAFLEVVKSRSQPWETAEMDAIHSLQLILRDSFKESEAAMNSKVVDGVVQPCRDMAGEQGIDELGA
Sequence of PhyB tetramers (fluorescently labeled streptavidin-based tetramers of PhyB_(1-651)-Avitag-His6) (P22629 25-183): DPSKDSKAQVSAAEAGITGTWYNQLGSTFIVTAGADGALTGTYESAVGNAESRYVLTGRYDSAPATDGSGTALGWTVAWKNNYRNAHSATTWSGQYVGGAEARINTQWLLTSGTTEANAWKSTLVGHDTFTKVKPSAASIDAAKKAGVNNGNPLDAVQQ

Substance “PhyB tetramers (fluorescently labeled streptavidin-based tetramers of PhyB_(1-651)-Avitag-His6) (from UniProt P14713 1-651; P22629 25-183) (complex)” has a calcium influx under continuous 660 nm light of different intensities (dark to 32%) and different PhyBt concentrations; intensity threshold for a calcium response (% 660 nm intensity) [1] of 3, an ongoing calcium response evoked by PhyBt(660) in the dark, then continuous 660 nm light of 2% to 32% intensity; intensity threshold to maintain the response (% 660 nm intensity) [2] of 3 and a half-life of the PhyB ON-TCR complex, ln2/(koff+ki), under continuous 660 nm light [3] of 2 s. The Kd [4] was 22 nM, the Q = qon/qoff, association constant of multivalent binding step (darkness), dimensionless [4] was 11 and the half-life of PhyB ON-PIF-TCR complex (darkness), ln(2)/koff [4] was 40 s. The qon, binding rate of receptor cross-linking (second, bivalent step) [4] was 0.19 s⁻¹.
